Measurements taken from patent US20070269808A1 (published 2007).

Experiments:
Notch = target: T1, Notch (UniProt P07207 53-2703, limits assumed); test: confocal immunofluorescence of cells incubated with Wg conditioned medium, anti-Wg antiserum and cy3 secondary antibody
T1 construct: whole, on cells

[1] = target: Drosophila frizzled 2 (Dfz2) (Drosophila), Q9VVX3; test: confocal immunofluorescence, Dfz2-transfected S2 cells incubated with Wg conditioned medium, anti-Wg antiserum
[2] = target: Drosophila frizzled 2 (Dfz2) (Drosophila), Q9VVX3; test: confocal immunofluorescence, human 293 cells transiently transfected with Dfz2, pretreated with chlorate and heparatinase

Chain of Drosophila frizzled 2 (Dfz2) (Drosophila), Q9VVX3 (Q9VVX3 other isoform, or with tags, fused parts or gaps limits assumed): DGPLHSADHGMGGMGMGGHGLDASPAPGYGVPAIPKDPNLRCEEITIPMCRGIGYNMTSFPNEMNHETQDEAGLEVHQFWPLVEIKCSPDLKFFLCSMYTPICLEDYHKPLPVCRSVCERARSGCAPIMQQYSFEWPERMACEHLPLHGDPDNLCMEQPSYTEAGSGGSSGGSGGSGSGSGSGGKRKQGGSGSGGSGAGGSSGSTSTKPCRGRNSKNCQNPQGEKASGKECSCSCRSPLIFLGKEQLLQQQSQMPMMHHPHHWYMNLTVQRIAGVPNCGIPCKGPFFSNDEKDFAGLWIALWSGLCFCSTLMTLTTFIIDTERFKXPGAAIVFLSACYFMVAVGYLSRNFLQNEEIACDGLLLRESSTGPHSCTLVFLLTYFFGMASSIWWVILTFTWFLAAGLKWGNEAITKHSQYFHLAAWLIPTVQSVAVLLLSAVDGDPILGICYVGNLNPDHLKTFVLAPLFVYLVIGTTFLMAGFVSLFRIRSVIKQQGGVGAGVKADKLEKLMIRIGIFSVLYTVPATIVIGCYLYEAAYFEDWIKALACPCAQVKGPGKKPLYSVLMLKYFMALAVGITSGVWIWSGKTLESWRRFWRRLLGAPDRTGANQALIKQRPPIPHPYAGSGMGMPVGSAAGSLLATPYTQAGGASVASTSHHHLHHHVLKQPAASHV
T1 sequence (P07207 53-2703 limits assumed): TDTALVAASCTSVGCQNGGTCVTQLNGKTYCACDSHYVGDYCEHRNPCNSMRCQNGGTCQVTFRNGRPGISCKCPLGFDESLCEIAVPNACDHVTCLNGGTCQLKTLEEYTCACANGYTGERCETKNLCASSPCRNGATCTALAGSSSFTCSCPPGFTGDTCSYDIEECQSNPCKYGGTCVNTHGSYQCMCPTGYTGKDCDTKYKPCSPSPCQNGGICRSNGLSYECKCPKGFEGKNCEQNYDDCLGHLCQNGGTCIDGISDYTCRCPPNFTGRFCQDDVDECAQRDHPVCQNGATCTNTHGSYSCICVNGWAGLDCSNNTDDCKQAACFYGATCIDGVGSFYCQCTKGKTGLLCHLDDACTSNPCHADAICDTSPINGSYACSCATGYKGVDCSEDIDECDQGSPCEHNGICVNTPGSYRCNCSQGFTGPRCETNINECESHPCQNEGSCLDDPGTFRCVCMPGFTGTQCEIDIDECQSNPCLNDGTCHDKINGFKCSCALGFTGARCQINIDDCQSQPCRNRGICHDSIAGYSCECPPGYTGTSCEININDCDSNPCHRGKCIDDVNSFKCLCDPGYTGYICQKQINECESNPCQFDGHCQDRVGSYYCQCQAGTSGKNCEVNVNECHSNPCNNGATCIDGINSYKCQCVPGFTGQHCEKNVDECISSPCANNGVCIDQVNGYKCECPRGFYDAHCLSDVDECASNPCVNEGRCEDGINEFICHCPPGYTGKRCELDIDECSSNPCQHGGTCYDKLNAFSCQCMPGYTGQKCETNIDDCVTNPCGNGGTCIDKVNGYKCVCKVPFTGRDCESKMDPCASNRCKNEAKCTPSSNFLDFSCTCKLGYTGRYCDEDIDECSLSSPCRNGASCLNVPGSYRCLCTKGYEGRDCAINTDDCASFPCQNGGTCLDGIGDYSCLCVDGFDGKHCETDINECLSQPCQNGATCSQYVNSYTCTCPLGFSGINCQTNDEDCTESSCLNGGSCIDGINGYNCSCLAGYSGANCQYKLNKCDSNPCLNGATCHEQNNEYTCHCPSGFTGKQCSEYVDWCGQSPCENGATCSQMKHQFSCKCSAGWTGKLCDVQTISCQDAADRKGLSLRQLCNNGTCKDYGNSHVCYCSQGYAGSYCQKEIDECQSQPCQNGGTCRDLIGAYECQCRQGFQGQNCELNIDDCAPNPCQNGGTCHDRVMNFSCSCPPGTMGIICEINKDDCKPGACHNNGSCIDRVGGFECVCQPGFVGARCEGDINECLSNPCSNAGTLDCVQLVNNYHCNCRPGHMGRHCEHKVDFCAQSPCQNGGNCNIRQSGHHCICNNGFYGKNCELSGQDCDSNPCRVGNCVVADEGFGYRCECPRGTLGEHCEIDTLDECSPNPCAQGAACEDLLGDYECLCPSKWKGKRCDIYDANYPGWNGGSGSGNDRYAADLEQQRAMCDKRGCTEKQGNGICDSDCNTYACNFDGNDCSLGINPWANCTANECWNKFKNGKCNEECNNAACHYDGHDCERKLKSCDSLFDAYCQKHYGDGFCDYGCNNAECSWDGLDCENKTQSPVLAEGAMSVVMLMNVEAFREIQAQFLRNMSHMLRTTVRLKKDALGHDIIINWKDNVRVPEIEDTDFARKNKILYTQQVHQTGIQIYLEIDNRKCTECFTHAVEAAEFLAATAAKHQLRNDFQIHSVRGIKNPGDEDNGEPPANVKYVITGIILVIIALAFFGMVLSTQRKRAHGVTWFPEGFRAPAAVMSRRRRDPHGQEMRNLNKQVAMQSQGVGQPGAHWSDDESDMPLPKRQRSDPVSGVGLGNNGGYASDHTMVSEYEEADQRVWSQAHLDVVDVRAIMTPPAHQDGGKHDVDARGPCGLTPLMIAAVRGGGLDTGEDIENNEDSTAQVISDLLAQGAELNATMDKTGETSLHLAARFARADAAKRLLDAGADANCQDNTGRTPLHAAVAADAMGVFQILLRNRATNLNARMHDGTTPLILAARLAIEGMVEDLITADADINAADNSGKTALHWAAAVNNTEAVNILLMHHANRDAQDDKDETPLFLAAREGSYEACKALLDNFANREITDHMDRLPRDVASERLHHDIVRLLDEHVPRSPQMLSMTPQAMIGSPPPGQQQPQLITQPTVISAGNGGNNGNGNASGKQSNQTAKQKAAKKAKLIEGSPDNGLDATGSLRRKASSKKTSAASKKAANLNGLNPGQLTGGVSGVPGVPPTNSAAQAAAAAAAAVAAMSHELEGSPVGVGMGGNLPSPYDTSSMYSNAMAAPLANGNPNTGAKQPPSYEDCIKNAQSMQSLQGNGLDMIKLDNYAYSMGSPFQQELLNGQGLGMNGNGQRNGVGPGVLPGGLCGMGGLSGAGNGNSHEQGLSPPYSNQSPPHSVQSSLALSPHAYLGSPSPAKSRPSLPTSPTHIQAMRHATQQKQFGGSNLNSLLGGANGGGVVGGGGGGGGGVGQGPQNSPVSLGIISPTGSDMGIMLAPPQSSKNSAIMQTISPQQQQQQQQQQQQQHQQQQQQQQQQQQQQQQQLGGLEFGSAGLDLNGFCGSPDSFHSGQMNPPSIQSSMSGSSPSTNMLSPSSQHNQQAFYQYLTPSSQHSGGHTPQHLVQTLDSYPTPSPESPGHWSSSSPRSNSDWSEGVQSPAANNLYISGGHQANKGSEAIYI

binding result (Notch): no binding
percent of cells stained [1]: 80%
percent of transfected cells positive [2]: 10 to 20%
B1: wingless (Wg) protein (ligand, Drosophila, UniProt P09615 18-468, looked up)
chain: GSSLSQVEGKQKSGRGRGSMWWGIAKVGEPNNITPIMYMDPAIHSTLRRKQRRLVRDNPGVLGALVKGANLAISECQHQFRNRRWNCSTRNFSRGKNLFGKIVDRGCRETSFIYAITSAAVTHSIARACSEGTIESCTCDYSHQSRSPQANHQAGSVAGVRDWEWGGCSDNIGFGFKFSREFVDTGERGRNLREKMNLHNNEAGRAHVQAEMRQECKCHGMSGSCTVKTCWMRLANFRVIGDNLKARFDGATRVQVTNSLRATNALAPVSPNAAGSNSVGSNGLIIPQSGLVYGEEEERMLNDHMPDILLENSHPISKIHHPNMPSPNSLPQAGQRGGRNGRRQGRKHNRYHFQLNPHNPEHKPPGSKDLVYLEPSPSFCEKNLRQGILGTHGRQCNETSLGVDGCGLMCCGRGYRRDEVVVVERCACTFHWCCEVKCKLCRTKKVIYTCL
notes: mature; Used as concentrated conditioned medium, not purified; It was detected as bands of about 52 kD, 'the size of the mature Wg protein'; also called soluble Wg protein; metabolically labeled Wg protein
